6 molecules from publication PMC11082193, “Enzymatic synthesis of mono- and trifluorinated alanine enantiomers expands the scope of fluorine biocatalysis” (Communications Chemistry, 2024) can be followed below.

In one data set the target is T1, SlALR (Streptomyces lavendulae, UniProt Q65YW7).
T1 construct: gene alr; expressed in E. coli BL21(DE3), Ni-NTA purified
T1 sequence (Q65YW7 2-378): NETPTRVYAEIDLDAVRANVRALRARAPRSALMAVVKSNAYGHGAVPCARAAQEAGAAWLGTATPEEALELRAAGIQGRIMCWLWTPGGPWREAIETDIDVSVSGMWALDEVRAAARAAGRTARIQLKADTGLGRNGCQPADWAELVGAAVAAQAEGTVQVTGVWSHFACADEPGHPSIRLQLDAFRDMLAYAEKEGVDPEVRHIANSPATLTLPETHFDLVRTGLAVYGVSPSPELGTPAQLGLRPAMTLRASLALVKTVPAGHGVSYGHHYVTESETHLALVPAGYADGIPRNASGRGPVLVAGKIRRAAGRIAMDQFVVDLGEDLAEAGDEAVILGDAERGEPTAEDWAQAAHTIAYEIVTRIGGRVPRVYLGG
The experiment in a line: HPLC of released pyruvate. Format: biochemical. Conditions: beta-elimination of fluoride; 10 mM substrate, 0.02 or 0.1 μM enzyme, 50 μM pyridoxal 5'-phosphate, pH 8.0, 30 °C, 18 h.

In the next data set the target is T2, NAD-PseFDH (Pseudomonas sp. 101, UniProt P33160).
T2 construct: N-terminal His6 tag followed by TEV site (His6 purified); source plasmid pZ-ASL; expressed in E. coli BL21(DE3)
T2 sequence (P33160 2-401): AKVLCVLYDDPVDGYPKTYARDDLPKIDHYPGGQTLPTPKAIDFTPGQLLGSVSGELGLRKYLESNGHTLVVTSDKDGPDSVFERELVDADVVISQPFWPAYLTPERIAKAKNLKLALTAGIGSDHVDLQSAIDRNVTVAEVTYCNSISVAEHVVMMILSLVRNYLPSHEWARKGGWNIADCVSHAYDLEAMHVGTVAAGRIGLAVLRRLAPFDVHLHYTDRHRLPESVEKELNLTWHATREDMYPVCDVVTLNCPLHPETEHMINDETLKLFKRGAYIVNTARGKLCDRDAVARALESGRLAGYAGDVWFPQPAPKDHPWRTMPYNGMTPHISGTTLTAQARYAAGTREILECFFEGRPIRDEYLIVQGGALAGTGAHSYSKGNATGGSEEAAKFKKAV
Description: FDH activity assay with formate. It counts as biochemical.

The next data set relates to CC(=O)C(=O)O. The experiment in a line: purified protein. It counts as biochemical, Vibrio proteolyticus. As to conditions: reductive amination, 0.5 mM NADH, 200 mM NH4Cl, 50 mM sodium phosphate pH 8.0, 30 °C.
A further data set relates to O=C(O)C(=O)CF. Description: purified protein. It counts as biochemical, Vibrio proteolyticus. Conditions: reductive amination, 0.5 mM NADH, 200 mM NH4Cl, 50 mM sodium phosphate pH 8.0, 30 °C.
Substrate in data set [1]: O=C(O)C(=O)CF
The experiment in a line: purified protein. Format: biochemical, Symbiobacterium thermophilum. Conditions: reductive amination, 0.5 mM NADPH, 200 mM NH4Cl, 50 mM sodium phosphate pH 8.0, 30 °C.

Substrate in data set [2]: CC(=O)C(=O)O
Description: purified protein. It counts as biochemical, Symbiobacterium thermophilum. Conditions: reductive amination, 0.5 mM NADPH, 200 mM NH4Cl, 50 mM sodium phosphate pH 8.0, 30 °C.

As for `N[C@@H](CF)C(=O)O` [(R)-FAla, (R)-3-fluoroalanine], the “HPLC of released pyruvate” value on SlALR is “(R)-FAla and (S)-FAla were transformed by ^SlALR into Pyr”.

Take `N[C@H](CF)C(=O)O` [(S)-FAla, (S)-3-fluoroalanine]: the “HPLC of released pyruvate” value on SlALR was “(R)-FAla and (S)-FAla were transformed by ^SlALR into Pyr”.

With `NC(=O)c1ccc[n+]([C@@H]2O[C@H](COP(=O)(O)OP(=O)(O)OC[C@H]3O[C@@H](n4cnc5c(N)ncnc54)[C@H](O)[C@@H]3O)[C@@H](O)[C@H]2O)c1` [NAD^+], the “FDH activity assay with formate” value on NAD-PseFDH (formate as co-substrate) is “confirmed the high specificity for either cofactor of the purified NAD-^PseFDH and NADP-^PseFDH enzymes”.

As to `O=CO` [formate], the “FDH activity assay with formate” value at NAD-PseFDH (NAD+ as co-substrate) is on record as “the functionality of both ^PseFDH enzymes was verified on formate”.

As for VpALD (Vibrio proteolyticus), in the data set on CC(=O)C(=O)O, the Km was 0.29 ± 0.04 mM, the maximum rate (Vmax) was 247 µmol/min/mg, the catalytic constant (kcat) stood at 173 ± 8 s⁻¹ and the kcat/Km came to 597000 M⁻¹ s⁻¹. Further, in the data set on O=C(O)C(=O)CF, the Km came out at 0.18 ± 0.02 mM, the maximal velocity (Vmax) came to 11.9 µmol/min/mg, the kcat is 8.3 ± 0.3 s⁻¹ and the catalytic efficiency (kcat/Km) came out at 46100 M⁻¹ s⁻¹.

B1: StDAPDH (Symbiobacterium thermophilum IAM 14863) (protein)
chain: DKLRVAVVGYGNVGRYALEAVQAAPDMELVGVVRRKVLAATPPELTGVRVVTDISQLEGVQGALLCVPTRSVPEYAEAMLRRGIHTVDSYDIHGDLADLRRRLDPVAREHGAAAVISAGWDPGTDSIIRALLEFMAPKGITYTNFGPGMSMGHSVAVKAIPGVRDALSMTIPAGMGVHKRAVYVELEPGADFAEVERAIKTDPYFVRDETRVTQVESVSALMDVGHGVVMERKGVSGATHNQLFRFEMRINNPALTAQVMVAALRAAARQKPGCYTMIEIPVIDYLPGDREAWIRKLV
notes: expressed in E. coli BL21(DE3), Ni-NTA purified
On to B1, for which, in the data set “purified protein [1]”, the Km is listed as 14.0 ± 0.6 mM, the Vmax amounted to 0.161 µmol/min/mg, the kcat came out at 0.093 ± 0.001 s⁻¹ and the kcat/Km is 6.6 M⁻¹ s⁻¹. In “purified protein [2]”, the Km was found to be 6.7 ± 0.3 mM, the Vmax is 1.81 µmol/min/mg, the kcat is 1.05 ± 0.01 s⁻¹ and the specificity constant (kcat/Km) is 160 M⁻¹ s⁻¹.

The term Km denotes the substrate concentration at which the rate is half of its maximum. What is called Vmax is the rate approached at saturating substrate. The kcat is the number of substrate molecules converted per active site and unit of time at saturation. For orientation: kcat/Km means the second-order rate constant that governs catalysis at low substrate concentration.
